In article PMC7251212, “Molecular Insight into TdfH-Mediated Zinc Piracy from Human Calprotectin by Neisseria gonorrhoeae” (mBio, 2020):

T1: recombinant TdfH (Neisseria gonorrhoeae TonB-dependent transporter, NGO0952) (Neisseria gonorrhoeae, UniProt A0ACH0F8A9 1-922)
T1 construct: TdfH, Neisseria gonorrhoeae, locus NGO0952; full-length tdfH gene, codon-optimised for E. coli; The tag of pHIS2 is not described: the N-terminal 10x His tag and TEV site are told of the modified pET20b vector, which was not the source of the protein used; also called recombinantly produced TdfH; purified TdfH; not shown: His tag (from the Ni-NTA purification)
T1 sequence: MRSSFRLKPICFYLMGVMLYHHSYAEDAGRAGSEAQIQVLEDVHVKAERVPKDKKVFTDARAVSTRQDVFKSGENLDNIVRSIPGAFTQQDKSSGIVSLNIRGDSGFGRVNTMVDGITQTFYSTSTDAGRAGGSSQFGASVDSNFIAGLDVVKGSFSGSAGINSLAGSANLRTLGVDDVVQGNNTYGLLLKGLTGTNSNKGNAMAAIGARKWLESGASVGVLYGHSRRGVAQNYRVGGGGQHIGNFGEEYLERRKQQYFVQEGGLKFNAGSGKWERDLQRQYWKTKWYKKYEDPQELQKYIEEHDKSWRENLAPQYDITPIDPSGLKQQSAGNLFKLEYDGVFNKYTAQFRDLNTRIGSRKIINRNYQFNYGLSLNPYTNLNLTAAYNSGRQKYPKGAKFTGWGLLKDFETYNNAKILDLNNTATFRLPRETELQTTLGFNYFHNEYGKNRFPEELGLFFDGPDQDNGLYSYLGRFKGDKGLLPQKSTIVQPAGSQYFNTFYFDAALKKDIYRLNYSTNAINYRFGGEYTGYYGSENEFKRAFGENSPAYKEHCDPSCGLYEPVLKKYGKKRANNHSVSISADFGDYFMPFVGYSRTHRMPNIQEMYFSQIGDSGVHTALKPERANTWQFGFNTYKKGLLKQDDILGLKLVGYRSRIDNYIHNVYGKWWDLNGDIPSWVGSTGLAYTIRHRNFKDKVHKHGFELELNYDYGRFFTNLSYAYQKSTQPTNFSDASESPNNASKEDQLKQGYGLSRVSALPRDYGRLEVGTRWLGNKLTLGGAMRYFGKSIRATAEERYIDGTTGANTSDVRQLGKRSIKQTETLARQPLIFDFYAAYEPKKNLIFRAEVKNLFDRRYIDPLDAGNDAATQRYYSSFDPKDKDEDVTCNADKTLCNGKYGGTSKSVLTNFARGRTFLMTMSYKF

B1: total knockout human calprotectin (both Zn binding sites mutated) (complex)
chain 1: MLTELEKALNSIIDVYNKYSLIKGNFNAVYRDDLKKLLETECPQYIRKKGADVWFKELDINTDGAVNFQEFLILVIKMGVAANKKSNEESHKE
chain 2: MTCKMSQLERNIETIINTFNQYSVKLGHPSTLNQGEFKELVRKDLQNFLKKENKNEKVIEHIMEDLDTNADKQLSFEEFIMLMARLTWASNEKMNEGDEGPGHHHKPGLGEGTP
modifications: Positions are not printed here. They follow the cited calprotectin site-knockout constructs and fit the printed counts (4 His-Asn in site 1; 3 His-Asn plus Asp-Ser in site 2). Cys kept as wild type …
B2: total knockout hCP (complex)
chain 1: B1 chain 1
chain 2: B1 chain 2
modifications: Same construct as m7. Positions come from the cited constructs and are not printed here.

Experiments:
[1] = target: T1, recombinant TdfH (Neisseria gonorrhoeae …); test: ITC; Nano ITC, 25°C, 1x PBS with 0.05% DDM; TdfH (300 μl, 20 μM) in the cell, CP sample (200 μM) in 20 injections of 2.5 μl; fitted with NanoAnalyze to a two-state (multisite) model, TKO to a single-site model; conditions: both partners purified
TdfH = target: T2, TdfH (Neisseria gonorrhoeae, UniProt A0ACH0F8A9 1-922); test: ITC; CP sample (200 uM) injected into TdfH (300 ul at 20 uM) in the cell, 20 injections of 2.5 ul every 300 s, 25 C, 1x PBS with 0.05% DDM; fitted with NanoAnalyze (multi-site model; independent model for TKO); conditions: both partners purified
T2 construct: TdfH, TonB-dependent transporter of Neisseria gonorrhoeae, locus NGO0952; full-length tdfH gene, codon optimised for E. coli; In 0.05% DDM; also called recombinant TdfH; NGO0952

Row | Binder | Kd [1] [µM] | stoichiometry N (TdfH)
1 | B1 | 13 | 
2 | B2 |  | 0.67 ± 0.12
